Data from patent US20080019962A1 (DYAX CORP A MASSACHUSETTS, published 2008).

Assays:
Test in all cases: cell-based or functional assay
Trypsinogen-IV = target: T1, Trypsinogen-IV (UniProt P35030 81-304)
T1 sequence (looked up): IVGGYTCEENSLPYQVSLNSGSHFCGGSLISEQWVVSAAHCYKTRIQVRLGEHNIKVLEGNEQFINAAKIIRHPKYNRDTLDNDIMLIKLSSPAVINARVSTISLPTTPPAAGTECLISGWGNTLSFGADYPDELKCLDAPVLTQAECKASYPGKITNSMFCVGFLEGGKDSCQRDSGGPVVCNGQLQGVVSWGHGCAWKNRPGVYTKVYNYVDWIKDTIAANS

MTSP-1 = target: T2, MTSP-1 (UniProt Q9Y5Y6 615-855, limits assumed)
T2 sequence (looked up): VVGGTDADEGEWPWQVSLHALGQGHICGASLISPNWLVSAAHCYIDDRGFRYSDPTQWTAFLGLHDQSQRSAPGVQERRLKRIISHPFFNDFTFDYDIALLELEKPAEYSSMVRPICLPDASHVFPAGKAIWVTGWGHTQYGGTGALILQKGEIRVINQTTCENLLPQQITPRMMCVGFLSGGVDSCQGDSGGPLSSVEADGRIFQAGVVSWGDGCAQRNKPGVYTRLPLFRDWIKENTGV

MTSP-6 = target: MTSP-6
MTSP-7 = target: MTSP-7
MTSP-10 = target: MTSP-10
Endotheliase-1 (ET1) = target: Endotheliase-1 (ET1)

Measured: activity against protease in selectivity screen (enzyme assay)

B1: D5 IgG1 antibody (Fab D5 reformatted) (antibody, V domains shown)
VH: EVQLLESGGGLVQPGGSLRLSCAASGFTFSRYDMHWVRQAPGKGLEWVSSISSSGGYTAYADSVKGRFTISRDNSKNTLYLQMNSLRAEDTAVYYCARGARGTSQGYWGQGTLVTVSS
VL: DIQMTQSPGTLSLSPGERGTLSCRASQFVSYSYLAWYQQKPGQAPRLLIYGASSRAKGIPDRFSGSGSGTDFTLTITRLEPEDFAVYYCQQYVPSVPWTFGQGTKVEVKR
< 5%: all assays above

B2: D2 IgG1 antibody (Fab D2 reformatted) (antibody, V domains shown)
VH: EVQLLESGGGLVQPGGSLRLSCAASGFTFSRYRMYWVRQAPGKGLEWVSSISPSGGDTRYADSVKGRFTISRDNSKNTLYLQMNSLRAEDTAVYYCARGGPRGNKYYFDYWGQGTLVTVSS
VL: DIQMTQSPSSLSASVGDRVTITCRASQTIDNYLNWYQQKPGKAPKLVVYAASTLQTRVPSRFSGSGSGTDFTLTIDSLKPEDFATYFCQQGFSNPWTFGQGTTVAMIR
< 5%: all assays above

B3: H10 IgG1 antibody (Fab H10 reformatted) (antibody, V domains shown)
VH: EVQLLESGGGLVQPGGSLRLSCAASGFTFSRYRMYWVRQAPGKGLEWVSSISPSGGDTRYADSVKGRFTISRDNSKNTLYLQMNSLRAEDTAVYYCARGGPRGNKYYFDYWGQGTLVTVSS
VL: not shown
not listed: MTSP-1
< 5%: all other assays above

B4: B5 IgG1 antibody (Fab B5 reformatted) (antibody, V domains shown)
VH: EVQLLESGGGLVQPGGSLRLSCAASGFTFSRYRMYWVRQAPGKGLEWVSSISPSGGDTRYADSVKGRFTISRDNSKNTLYLQMNSLRAEDTAVYYCARGGPRGNKYYFDYWGQGTLVTVSS
VL: SYELTQPPSVSVSLGQAANISCSGDRLGDKYTSWYQQQSGQSPVLVIYQDKKRPSGIPERFSGSSSGNTATLTISGAQAIDEAAYYCQAWATNVVFGAGTKLTVLG
< 5%: all assays above

B5: F8 IgG1 antibody (Fab F8 reformatted) (antibody, V domains shown)
VH: EVQLLESGGGLVQPGGSLRLSCAASGFTFSRYHMWWVRQAPGKGLEWVSGISSSRGITKYADSVKGRFTISRDNSKNTLYLQMNSLRAEDTAVYYCARGGPRGNKYYFDYWGQGTLVTVSS
VL: DIQMTQSPGTLSLSPGERVTLSCRASQSVTSSDLAWYQQKPGQAPRLLISGASSRATGIPDRFSGSGSGTDFTLTISRLEPEDFAVYYCQQYGNSPGTFGQGTKVEIKR
not listed: MTSP-1
< 5%: all other assays above

B6: C9 IgG1 antibody (Fab C9 reformatted) (antibody, V domains shown)
VH: EVQLLESGGGLVQPGGSLRLSCAASGFTFSRYPMFWVRQAPGKGLEWVSYISSSGGFTGYADSVKGRFTISRDNSKNTLYLQMNSLRAEDTAVYYCARGGPRGNKYYFDYWGQGTLVTVSS
VL: QSVLTQPASVSGSPGQSITISCTGTSSDVGHYNYVSWYQQHPGKAPKVMIYDVSSRPSGVSDRFSGSKSGNTASLAISGLQAEDEADYYCSSYTSGDTLYVFGTGTKVTVLG
< 5%: all assays above

B7: A2 IgG1 antibody (Fab A2 reformatted) (antibody, V domains shown)
VH: EVQLLESGGGLVQPGGSLRLSCAASGFTFSRYRMYWVRQAPGKGLEWVSSISPSGGDTRYADSVKGRFTISRDNSKNTLYLQMNSLRAEDTAVYYCARGGPRGNKYYFDYWGQGTLVTVSS
VL: DIQMTQSPSFLSAFVGDRVTITCRASQDIRSDLAWYQQTPGKAPKLLIYAASTLKDGAPSRFSGSGSGTEFTLTISSLHPEDLATYYCQHLNGHPAFGPGTKVNIQR
< 5%: all assays above
